To fix the notation:
T1: Sfi1p fragment K246-E677 (15-repeat construct) (S. cerevisiae, UniProt Q12369 246-677)
T1 sequence (looked up): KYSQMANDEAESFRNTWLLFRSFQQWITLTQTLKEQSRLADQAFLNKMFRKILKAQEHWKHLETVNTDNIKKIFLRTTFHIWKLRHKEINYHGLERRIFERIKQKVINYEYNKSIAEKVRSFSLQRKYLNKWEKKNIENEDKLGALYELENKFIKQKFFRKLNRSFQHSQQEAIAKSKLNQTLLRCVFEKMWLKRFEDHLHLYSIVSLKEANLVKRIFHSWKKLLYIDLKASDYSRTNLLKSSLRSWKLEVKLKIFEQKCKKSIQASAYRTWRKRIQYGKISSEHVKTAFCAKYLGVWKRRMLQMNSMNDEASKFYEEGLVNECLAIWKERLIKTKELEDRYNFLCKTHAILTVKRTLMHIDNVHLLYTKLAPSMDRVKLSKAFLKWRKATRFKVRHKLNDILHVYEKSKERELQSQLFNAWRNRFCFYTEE

B1: Sfi1p fragment K643-E710 (two repeats; crystal 1 construct) (domain or fragment, S. cerevisiae, UniProt Q12369 643-710, looked up)
chain: KLNDILHVYEKSKERELQSQLFNAWRNRFCFYTEECNIQAISKRNYQLEKMVLKKFRERLLEIVKSEE
B2: Sfi1p fragment N218-H306 (three repeats; crystal 2 construct) (domain or fragment, S. cerevisiae, UniProt Q12369 218-306, looked up)
chain: NEEANRFANQAKLRVQEAVFYIWSDKTLKYSQMANDEAESFRNTWLLFRSFQQWITLTQTLKEQSRLADQAFLNKMFRKILKAQEHWKH
B3: yeast centrin (Cdc31p) (natural protein, S. cerevisiae)
chain: MSKNRSSLQSGPLNSELLEEQKQEIYEAFSLFDMNNDGFLDYHELKVAMKALGFELPKREILDLIDEYDSEGRHLMKYDDFYIVMGEKILKRDPLDEIKRAFQLFDDDHTGKISIKNLRRVAKELGETLTDEELRAMIEEFDLDGDGEINENEFIAICTDS

Assay [1] concerns the target B3. In words: crystal structure.
The target in assay [2] is B3. In words: crystal structure. The source holds these as a separate data set.
The target of assay [3] is T1, Sfi1p fragment K246-E677 (15-repeat …). In words: native MS.

Where “and” joins values, the source holds several entries; their conditions need not be identical. Equal values may be shown once. Read-outs that look alike come from different tables or passages of the source.

On to B1, for which, in assay [1], the binding result is on record as “binds”. As for B2, the binding result in assay [2] is recorded as “binds”. For the molecule B3, the “stoichiometry N” value in assay [3] was 15 and 14.
